Experimental data published in doi:10.1101/2024.07.16.603699 (bioRxiv, 2024).

T1: Saccharolobus solfataricus ribosomal protein uS13 (S. solfataricus (endogenous in the …, UniProt P95986 1-165))
T1 sequence (looked up): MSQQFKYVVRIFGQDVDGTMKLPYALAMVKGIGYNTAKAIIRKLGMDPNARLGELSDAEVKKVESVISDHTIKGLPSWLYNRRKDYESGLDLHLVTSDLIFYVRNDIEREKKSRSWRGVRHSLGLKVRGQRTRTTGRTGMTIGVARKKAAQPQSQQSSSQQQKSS

T2: Saccharolobus solfataricus ribosomal protein uS3 (S. solfataricus (endogenous in the …, UniProt Q9UXA0 1-229))
T2 sequence (looked up): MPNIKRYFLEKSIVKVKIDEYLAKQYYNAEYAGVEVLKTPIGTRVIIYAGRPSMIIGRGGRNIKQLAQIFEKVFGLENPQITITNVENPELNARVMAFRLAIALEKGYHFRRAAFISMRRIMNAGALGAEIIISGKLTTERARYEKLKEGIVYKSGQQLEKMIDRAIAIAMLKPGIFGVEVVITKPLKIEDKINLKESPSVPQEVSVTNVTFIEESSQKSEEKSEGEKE

B1: Saccharolobus solfataricus ribosomal protein eS25 (natural protein, UniProt Q97ZZ6 1-110, looked up)
chain: MGGASKKPISTMEKRLKKEAEKQQKAEEKKKGPSKTGKEIISRAVTIDEETKKKVLDEIKKESIITPYALATKSGISISVARKILKELENQNVVKLYSKNRRLEIYIAAS
B2: Saccharolobus solfataricus ribosomal protein aS34 (natural protein, UniProt Q97ZK4 1-72, looked up)
chain: MSIKNRGSNAYGHLGWLTVYCRICNRKLIIGTDILYKCPKCEKKYSAYFCEADKRGLKGKCPYCGTELVPIL
B3: Saccharolobus solfataricus ribosomal protein uS14 (natural protein, UniProt Q97ZQ5 1-54, looked up)
chain: MGKYKPPAERKYGKGVQSCQRCGSKDSVIQKYGIYLCRQCFREVAYELGFRKYW

Columns and labels:
Test in all cases: cryo-EM structure
[1] = target: T1, Saccharolobus solfataricus ribosomal …
[2] = target: T2, Saccharolobus solfataricus ribosomal …
[3] = target: B2

**Q.** Does B1 bind [1]?
**A.** binds

**Q.** Does B2 bind [2]?
**A.** binds

**Q.** Does B3 bind [3]?
**A.** binds
